Assay results: US20250073311A1, “DOSAGE REGIME” (ZEALAND PHARMA A/S, priority 2021, published 2025)
Blank lines part the entries; values can stand above or below the binder they belong to. Numbered stars: 1 amine (or outer) side, 2 acyl side, 3 side chain; on linkers, the order of the positions; unused ones are H or OH. Square brackets hold non-standard residues; d marks the D form. Side chains are listed from the residue outwards. * marks the point of attachment. C18 diacid = O=C(O)CCCCCCCCCCCCCCCCC(=O)*; γGlu = O=C(O)[C@H](CCC(=O)[*:2])N[*:1]; Aib = CC(C)(N)C(=O)O

Key:
[1] = target: human glucagon-like peptide 1 receptor (GLP-1R) (human, UniProt P43220); test: cell-based or functional assay
[2] = target: T1, human GLP-2 receptor (hGLP2-R) (human, UniProt O95838); test: cell-based or functional assay
T1 sequence: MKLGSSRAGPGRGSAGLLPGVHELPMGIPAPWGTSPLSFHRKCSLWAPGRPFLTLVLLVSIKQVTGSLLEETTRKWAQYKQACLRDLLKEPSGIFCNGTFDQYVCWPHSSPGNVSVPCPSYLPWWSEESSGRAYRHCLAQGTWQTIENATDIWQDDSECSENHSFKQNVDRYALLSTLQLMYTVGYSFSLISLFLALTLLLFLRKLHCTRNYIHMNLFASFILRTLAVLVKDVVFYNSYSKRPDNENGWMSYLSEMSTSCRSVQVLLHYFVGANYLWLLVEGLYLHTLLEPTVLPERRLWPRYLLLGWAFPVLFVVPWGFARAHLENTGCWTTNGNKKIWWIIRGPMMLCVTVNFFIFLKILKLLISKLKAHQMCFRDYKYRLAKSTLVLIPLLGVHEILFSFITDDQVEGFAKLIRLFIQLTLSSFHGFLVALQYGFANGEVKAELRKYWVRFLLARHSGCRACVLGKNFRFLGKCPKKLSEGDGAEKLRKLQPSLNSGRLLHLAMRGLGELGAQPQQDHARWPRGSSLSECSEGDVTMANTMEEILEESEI

EC50 GLP-1 (nM), cAMP AlphaScreen [1]: 0.57 nM
EC50 GLP-2 (nM), cAMP AlphaScreen [2]: 0.086 nM
B1: Compound 14 (peptide)
peptide: H-H[Aib]EGSFTSELATILDK([γGlu-C18 diacid])LAARDFIAWLIAHKITD-OH
SMILES: CC[C@H](C)[C@H](NC(=O)[C@H](CC(C)C)NC(=O)[C@H](Cc1c[nH]c2ccccc12)NC(=O)[C@H](C)NC(=O)[C@@H](NC(=O)[C@H](Cc1ccccc1)NC(=O)[C@H](CC(=O)O)NC(=O)[C@H](CCCNC(=N)N)NC(=O)[C@H](C)NC(=O)[C@H](C)NC(=O)[C@H](CC(C)C)NC(=O)[C@H](CCCCNC(=O)CC[C@H](NC(=O)CCCCCCCCCCCCCCCCC(=O)O)C(=O)O)NC(=O)[C@H](CC(=O)O)NC(=O)[C@H](CC(C)C)NC(=O)[C@@H](NC(=O)[C@@H](NC(=O)[C@H](C)NC(=O)[C@H](CC(C)C)NC(=O)[C@H](CCC(=O)O)NC(=O)[C@H](CO)NC(=O)[C@@H](NC(=O)[C@H](Cc1ccccc1)NC(=O)[C@H](CO)NC(=O)CNC(=O)[C@H](CCC(=O)O)NC(=O)C(C)(C)NC(=O)[C@@H](N)Cc1c[nH]cn1)[C@@H](C)O)[C@@H](C)O)[C@@H](C)CC)[C@@H](C)CC)C(=O)N[C@@H](C)C(=O)N[C@@H](Cc1c[nH]cn1)C(=O)N[C@@H](CCCCN)C(=O)N[C@H](C(=O)N[C@H](C(=O)N[C@@H](CC(=O)O)C(=O)O)[C@@H](C)O)[C@@H](C)CC

EC50 GLP-1 (nM), cAMP AlphaScreen [1]: 0.14 nM
EC50 GLP-2 (nM), cAMP AlphaScreen [2]: 0.11 nM
B2: Compound 12 (peptide)
peptide: H-H[Aib]EGTFTSELATILDK([γGlu-C18 diacid])LAARDFIAWLIEHKITD-OH
SMILES: CC[C@H](C)[C@H](NC(=O)[C@H](Cc1ccccc1)NC(=O)[C@H](CC(=O)O)NC(=O)[C@H](CCCNC(=N)N)NC(=O)[C@H](C)NC(=O)[C@H](C)NC(=O)[C@H](CC(C)C)NC(=O)[C@H](CCCCNC(=O)CC[C@H](NC(=O)CCCCCCCCCCCCCCCCC(=O)O)C(=O)O)NC(=O)[C@H](CC(=O)O)NC(=O)[C@H](CC(C)C)NC(=O)[C@@H](NC(=O)[C@@H](NC(=O)[C@H](C)NC(=O)[C@H](CC(C)C)NC(=O)[C@H](CCC(=O)O)NC(=O)[C@H](CO)NC(=O)[C@@H](NC(=O)[C@H](Cc1ccccc1)NC(=O)[C@@H](NC(=O)CNC(=O)[C@H](CCC(=O)O)NC(=O)C(C)(C)NC(=O)[C@@H](N)Cc1c[nH]cn1)[C@@H](C)O)[C@@H](C)O)[C@@H](C)O)[C@@H](C)CC)C(=O)N[C@@H](C)C(=O)N[C@@H](Cc1c[nH]c2ccccc12)C(=O)N[C@@H](CC(C)C)C(=O)N[C@H](C(=O)N[C@@H](CCC(=O)O)C(=O)N[C@@H](Cc1c[nH]cn1)C(=O)N[C@@H](CCCCN)C(=O)N[C@H](C(=O)N[C@H](C(=O)N[C@@H](CC(=O)O)C(=O)O)[C@@H](C)O)[C@@H](C)CC)[C@@H](C)CC

EC50 GLP-1 (nM), cAMP AlphaScreen [1]: 0.25 nM
EC50 GLP-2 (nM), cAMP AlphaScreen [2]: 0.16 nM
B3: Compound 15 (peptide)
peptide: H-H[Aib]EGTFTSELATILDK([γGlu-C18 diacid])LAARDFIAWLIAHKITD-OH
SMILES: CC[C@H](C)[C@H](NC(=O)[C@H](CC(C)C)NC(=O)[C@H](Cc1c[nH]c2ccccc12)NC(=O)[C@H](C)NC(=O)[C@@H](NC(=O)[C@H](Cc1ccccc1)NC(=O)[C@H](CC(=O)O)NC(=O)[C@H](CCCNC(=N)N)NC(=O)[C@H](C)NC(=O)[C@H](C)NC(=O)[C@H](CC(C)C)NC(=O)[C@H](CCCCNC(=O)CC[C@H](NC(=O)CCCCCCCCCCCCCCCCC(=O)O)C(=O)O)NC(=O)[C@H](CC(=O)O)NC(=O)[C@H](CC(C)C)NC(=O)[C@@H](NC(=O)[C@@H](NC(=O)[C@H](C)NC(=O)[C@H](CC(C)C)NC(=O)[C@H](CCC(=O)O)NC(=O)[C@H](CO)NC(=O)[C@@H](NC(=O)[C@H](Cc1ccccc1)NC(=O)[C@@H](NC(=O)CNC(=O)[C@H](CCC(=O)O)NC(=O)C(C)(C)NC(=O)[C@@H](N)Cc1c[nH]cn1)[C@@H](C)O)[C@@H](C)O)[C@@H](C)O)[C@@H](C)CC)[C@@H](C)CC)C(=O)N[C@@H](C)C(=O)N[C@@H](Cc1c[nH]cn1)C(=O)N[C@@H](CCCCN)C(=O)N[C@H](C(=O)N[C@H](C(=O)N[C@@H](CC(=O)O)C(=O)O)[C@@H](C)O)[C@@H](C)CC

EC50 GLP-1 (nM), cAMP AlphaScreen [1]: 0.9 nM
EC50 GLP-2 (nM), cAMP AlphaScreen [2]: 0.33 nM
B4: Compound 17 (peptide)
peptide: H-H[Aib]EGTFSSELATILDK([γGlu-C18 diacid])QAARDFIAWLIQHKITD-OH
SMILES: CC[C@H](C)[C@H](NC(=O)[C@H](Cc1ccccc1)NC(=O)[C@H](CC(=O)O)NC(=O)[C@H](CCCNC(=N)N)NC(=O)[C@H](C)NC(=O)[C@H](C)NC(=O)[C@H](CCC(N)=O)NC(=O)[C@H](CCCCNC(=O)CC[C@H](NC(=O)CCCCCCCCCCCCCCCCC(=O)O)C(=O)O)NC(=O)[C@H](CC(=O)O)NC(=O)[C@H](CC(C)C)NC(=O)[C@@H](NC(=O)[C@@H](NC(=O)[C@H](C)NC(=O)[C@H](CC(C)C)NC(=O)[C@H](CCC(=O)O)NC(=O)[C@H](CO)NC(=O)[C@H](CO)NC(=O)[C@H](Cc1ccccc1)NC(=O)[C@@H](NC(=O)CNC(=O)[C@H](CCC(=O)O)NC(=O)C(C)(C)NC(=O)[C@@H](N)Cc1c[nH]cn1)[C@@H](C)O)[C@@H](C)O)[C@@H](C)CC)C(=O)N[C@@H](C)C(=O)N[C@@H](Cc1c[nH]c2ccccc12)C(=O)N[C@@H](CC(C)C)C(=O)N[C@H](C(=O)N[C@@H](CCC(N)=O)C(=O)N[C@@H](Cc1c[nH]cn1)C(=O)N[C@@H](CCCCN)C(=O)N[C@H](C(=O)N[C@H](C(=O)N[C@@H](CC(=O)O)C(=O)O)[C@@H](C)O)[C@@H](C)CC)[C@@H](C)CC

EC50 GLP-1 (nM), cAMP AlphaScreen [1]: 0.073 nM
EC50 GLP-2 (nM), cAMP AlphaScreen [2]: 0.68 nM
B5: Compound 16 (peptide)
peptide: H-H[Aib]EGTFTSELATILDK([γGlu-C18 diacid])EAARLFIAWLIEHKITD-OH
SMILES: CC[C@H](C)[C@H](NC(=O)[C@H](Cc1ccccc1)NC(=O)[C@H](CC(C)C)NC(=O)[C@H](CCCNC(=N)N)NC(=O)[C@H](C)NC(=O)[C@H](C)NC(=O)[C@H](CCC(=O)O)NC(=O)[C@H](CCCCNC(=O)CC[C@H](NC(=O)CCCCCCCCCCCCCCCCC(=O)O)C(=O)O)NC(=O)[C@H](CC(=O)O)NC(=O)[C@H](CC(C)C)NC(=O)[C@@H](NC(=O)[C@@H](NC(=O)[C@H](C)NC(=O)[C@H](CC(C)C)NC(=O)[C@H](CCC(=O)O)NC(=O)[C@H](CO)NC(=O)[C@@H](NC(=O)[C@H](Cc1ccccc1)NC(=O)[C@@H](NC(=O)CNC(=O)[C@H](CCC(=O)O)NC(=O)C(C)(C)NC(=O)[C@@H](N)Cc1c[nH]cn1)[C@@H](C)O)[C@@H](C)O)[C@@H](C)O)[C@@H](C)CC)C(=O)N[C@@H](C)C(=O)N[C@@H](Cc1c[nH]c2ccccc12)C(=O)N[C@@H](CC(C)C)C(=O)N[C@H](C(=O)N[C@@H](CCC(=O)O)C(=O)N[C@@H](Cc1c[nH]cn1)C(=O)N[C@@H](CCCCN)C(=O)N[C@H](C(=O)N[C@H](C(=O)N[C@@H](CC(=O)O)C(=O)O)[C@@H](C)O)[C@@H](C)CC)[C@@H](C)CC

EC50 GLP-1 (nM), cAMP AlphaScreen [1]: 2.2 nM
EC50 GLP-2 (nM), cAMP AlphaScreen [2]: 0.099 nM
B6: Compound 13 (peptide)
peptide: H-H[Aib]EGTFSSELATILDK([γGlu-C18 diacid])LAARDFIAWLIAHKITD-OH
SMILES: CC[C@H](C)[C@H](NC(=O)[C@H](CC(C)C)NC(=O)[C@H](Cc1c[nH]c2ccccc12)NC(=O)[C@H](C)NC(=O)[C@@H](NC(=O)[C@H](Cc1ccccc1)NC(=O)[C@H](CC(=O)O)NC(=O)[C@H](CCCNC(=N)N)NC(=O)[C@H](C)NC(=O)[C@H](C)NC(=O)[C@H](CC(C)C)NC(=O)[C@H](CCCCNC(=O)CC[C@H](NC(=O)CCCCCCCCCCCCCCCCC(=O)O)C(=O)O)NC(=O)[C@H](CC(=O)O)NC(=O)[C@H](CC(C)C)NC(=O)[C@@H](NC(=O)[C@@H](NC(=O)[C@H](C)NC(=O)[C@H](CC(C)C)NC(=O)[C@H](CCC(=O)O)NC(=O)[C@H](CO)NC(=O)[C@H](CO)NC(=O)[C@H](Cc1ccccc1)NC(=O)[C@@H](NC(=O)CNC(=O)[C@H](CCC(=O)O)NC(=O)C(C)(C)NC(=O)[C@@H](N)Cc1c[nH]cn1)[C@@H](C)O)[C@@H](C)O)[C@@H](C)CC)[C@@H](C)CC)C(=O)N[C@@H](C)C(=O)N[C@@H](Cc1c[nH]cn1)C(=O)N[C@@H](CCCCN)C(=O)N[C@H](C(=O)N[C@H](C(=O)N[C@@H](CC(=O)O)C(=O)O)[C@@H](C)O)[C@@H](C)CC

EC50 GLP-1 (nM), cAMP AlphaScreen [1]: 0.19 nM
EC50 GLP-2 (nM), cAMP AlphaScreen [2]: 0.21 nM
B7: Compound 18 (peptide)
peptide: H-H[Aib]EGSFTSELATILDK([γGlu-C18 diacid])QAARDFIAWLIQHKITD-OH
SMILES: CC[C@H](C)[C@H](NC(=O)[C@H](Cc1ccccc1)NC(=O)[C@H](CC(=O)O)NC(=O)[C@H](CCCNC(=N)N)NC(=O)[C@H](C)NC(=O)[C@H](C)NC(=O)[C@H](CCC(N)=O)NC(=O)[C@H](CCCCNC(=O)CC[C@H](NC(=O)CCCCCCCCCCCCCCCCC(=O)O)C(=O)O)NC(=O)[C@H](CC(=O)O)NC(=O)[C@H](CC(C)C)NC(=O)[C@@H](NC(=O)[C@@H](NC(=O)[C@H](C)NC(=O)[C@H](CC(C)C)NC(=O)[C@H](CCC(=O)O)NC(=O)[C@H](CO)NC(=O)[C@@H](NC(=O)[C@H](Cc1ccccc1)NC(=O)[C@H](CO)NC(=O)CNC(=O)[C@H](CCC(=O)O)NC(=O)C(C)(C)NC(=O)[C@@H](N)Cc1c[nH]cn1)[C@@H](C)O)[C@@H](C)O)[C@@H](C)CC)C(=O)N[C@@H](C)C(=O)N[C@@H](Cc1c[nH]c2ccccc12)C(=O)N[C@@H](CC(C)C)C(=O)N[C@H](C(=O)N[C@@H](CCC(N)=O)C(=O)N[C@@H](Cc1c[nH]cn1)C(=O)N[C@@H](CCCCN)C(=O)N[C@H](C(=O)N[C@H](C(=O)N[C@@H](CC(=O)O)C(=O)O)[C@@H](C)O)[C@@H](C)CC)[C@@H](C)CC
